Measurements: paper PMC2965261 (Nucleic Acids Research, 2010)

Molecular target: T1, Candida albicans Ino4 (C. albicans, UniProt A0A1D8PH18 1-130)
T1 sequence: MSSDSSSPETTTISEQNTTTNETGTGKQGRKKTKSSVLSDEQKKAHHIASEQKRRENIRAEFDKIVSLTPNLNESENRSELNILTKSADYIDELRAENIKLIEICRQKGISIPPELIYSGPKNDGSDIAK
Assay: two-hybrid

B1: Candida albicans Ino2 (natural protein)
chain: MSSTVTQTMNNNPTEKVTFTASNSQADFDLLDIFSNDMDFEQAYDMYNNLQEKNAMGSFEQLQKVQALNQQYVSNLQPPSSAQFPDQFAYERAQILNGEYNKQSGLMNDATNKNYSFNDDTFDQFFTNTESNALEKFLDNLANPVASVNPLQFYNNTRTSVPDEDVDLSFELHTMKVPQQFKPRSQSLEHNPPLQQKVRFTEEEHAALKQELTEAFAHPCTQLPSPSTTEYKPKPTTPKVVKQFVTPPNSGDESRKRNSDIESDESEEETTPTTKKRKRTSSKPLLSVEQKRLNHSHSEQKRRQLCKFAYQRCLELIIDLDAFNKLPELNESERKSKRARVNKDGLPNLSKHNALIRISNEMILIKSMNDSLKKLIENR
galactosidase activity, fold of the background activity: 2.5 fold
